Test results taken from patent US20160145684A1.

Assays:
[1] = target: Human statherin protein (human) (UniProt P02808); test: indirect ELISA; coat: sample 2, 25 uL saliva/100 uL in urine, diluted 1:40; replicate R3
[2] = target: Human statherin protein (human) (UniProt P02808); test: indirect ELISA; coat: sample 2, 25 uL saliva/100 uL in urine, diluted 1:40; mean minus saliva-free urine blank
[3] = target: Human statherin protein (human) (UniProt P02808); test: indirect ELISA; coat: B-Saliva (pure saliva of individual B) diluted 1:40; replicate R1
[4] = target: Human statherin protein (human) (UniProt P02808); test: indirect ELISA; coat: sample 6, 1.5625 uL saliva/100 uL in urine, diluted 1:40; mean of triplicate
[5] = target: Human statherin protein (human) (UniProt P02808); test: indirect ELISA; coat: sample 6, 1.5625 uL saliva/100 uL in urine, diluted 1:40; replicate R2
[6] = target: Human statherin protein (human) (UniProt P02808); test: indirect ELISA; coat: A-SB-U (buccal swab stirred in 30 mL urine, individual A) diluted 1:40; replicate R1
[7] = target: Human statherin protein (human) (UniProt P02808); test: indirect ELISA; coat: B-Saliva (pure saliva of individual B) diluted 1:40; mean of triplicate
[8] = target: Human statherin protein (human) (UniProt P02808); test: indirect ELISA; coat: sample 4, 6.25 uL saliva/100 uL in urine, diluted 1:40; replicate R1
[9] = target: Human statherin protein (human) (UniProt P02808); test: indirect ELISA; coat: A-SB-U (buccal swab stirred in 30 mL urine, individual A) diluted 1:40; mean of triplicate
[10] = target: Human statherin protein (human) (UniProt P02808); test: indirect ELISA; coat: A-SP-U (about 500 uL spit in 30 mL urine, individual A) diluted 1:40; mean of triplicate
[11] = target: Human statherin protein (human) (UniProt P02808); test: indirect ELISA; coat: B-SB-U (buccal swab stirred in 30 mL urine, individual B) diluted 1:40; replicate R1
[12] = target: Human statherin protein (human) (UniProt P02808); test: indirect ELISA; coat: sample 3, 12.5 uL saliva/100 uL in urine, diluted 1:40; replicate R3
[13] = target: Human statherin protein (human) (UniProt P02808); test: indirect ELISA; coat: sample 2, 25 uL saliva/100 uL in urine, diluted 1:40; mean of triplicate
[14] = target: Human statherin protein (human) (UniProt P02808); test: indirect ELISA; coat: sample 3, 12.5 uL saliva/100 uL in urine, diluted 1:40; replicate R1
[15] = target: Human statherin protein (human) (UniProt P02808); test: indirect ELISA; coat: sample 7, 0.78125 uL saliva/100 uL in urine, diluted 1:40; replicate R2
[16] = target: Human statherin protein (human) (UniProt P02808); test: indirect ELISA; coat: sample 6, 1.5625 uL saliva/100 uL in urine, diluted 1:40; replicate R1
[17] = target: Human statherin protein (human) (UniProt P02808); test: indirect ELISA; coat: sample 4, 6.25 uL saliva/100 uL in urine, diluted 1:40; replicate R2
[18] = target: Human statherin protein (human) (UniProt P02808); test: indirect ELISA; coat: B-SP-U (about 500 uL spit in 30 mL urine, individual B) diluted 1:40; replicate R2
[19] = target: Human statherin protein (human) (UniProt P02808); test: indirect ELISA; coat: A-Saliva (pure saliva of individual A) diluted 1:40; replicate R3
[20] = target: Human statherin protein (human) (UniProt P02808); test: indirect ELISA; coat: sample 6, 1.5625 uL saliva/100 uL in urine, diluted 1:40; mean minus saliva-free urine blank
[21] = target: Human statherin protein (human) (UniProt P02808); test: indirect ELISA; coat: B-SP-U (about 500 uL spit in 30 mL urine, individual B) diluted 1:40; replicate R3
[22] = target: Human statherin protein (human) (UniProt P02808); test: indirect ELISA; coat: sample 7, 0.78125 uL saliva/100 uL in urine, diluted 1:40; mean of triplicate
[23] = target: Human statherin protein (human) (UniProt P02808); test: indirect ELISA; coat: B-Saliva (pure saliva of individual B) diluted 1:40; replicate R3
[24] = target: Human statherin protein (human) (UniProt P02808); test: indirect ELISA; coat: sample 3, 12.5 uL saliva/100 uL in urine, diluted 1:40; mean of triplicate
[25] = target: Human statherin protein (human) (UniProt P02808); test: indirect ELISA; coat: B-Saliva (pure saliva of individual B) diluted 1:40; replicate R2
[26] = target: Human statherin protein (human) (UniProt P02808); test: indirect ELISA; coat: sample 1, 50 uL saliva/100 uL in urine, diluted 1:40; replicate R1
[27] = target: Human statherin protein (human) (UniProt P02808); test: indirect ELISA; coat: sample 1, 50 uL saliva/100 uL in urine, diluted 1:40; replicate R3
[28] = target: Human statherin protein (human) (UniProt P02808); test: indirect ELISA; coat: A-Saliva (pure saliva of individual A) diluted 1:40; replicate R2
[29] = target: Human statherin protein (human) (UniProt P02808); test: indirect ELISA; coat: sample 5, 3.125 uL saliva/100 uL in urine, diluted 1:40; replicate R1
[30] = target: Human statherin protein (human) (UniProt P02808); test: indirect ELISA; coat: sample 5, 3.125 uL saliva/100 uL in urine, diluted 1:40; replicate R3
[31] = target: Human statherin protein (human) (UniProt P02808); test: indirect ELISA; coat: sample 7, 0.78125 uL saliva/100 uL in urine, diluted 1:40; replicate R3
[32] = target: Human statherin protein (human) (UniProt P02808); test: indirect ELISA; coat: sample 3, 12.5 uL saliva/100 uL in urine, diluted 1:40; replicate R2
[33] = target: Human statherin protein (human) (UniProt P02808); test: indirect ELISA; coat: B-SB-U (buccal swab stirred in 30 mL urine, individual B) diluted 1:40; mean of triplicate
[34] = target: Human statherin protein (human) (UniProt P02808); test: indirect ELISA; coat: sample 4, 6.25 uL saliva/100 uL in urine, diluted 1:40; mean of triplicate
[35] = target: Human statherin protein (human) (UniProt P02808); test: indirect ELISA; coat: A-Saliva (pure saliva of individual A) diluted 1:40; replicate R1
[36] = target: Human statherin protein (human) (UniProt P02808); test: indirect ELISA; coat: sample 5, 3.125 uL saliva/100 uL in urine, diluted 1:40; mean of triplicate
[37] = target: Human statherin protein (human) (UniProt P02808); test: indirect ELISA; coat: sample 1, 50 uL saliva/100 uL in urine, diluted 1:40; replicate R2
[38] = target: Human statherin protein (human) (UniProt P02808); test: indirect ELISA; coat: B-SP-U (about 500 uL spit in 30 mL urine, individual B) diluted 1:40; mean of triplicate
[39] = target: Human statherin protein (human) (UniProt P02808); test: indirect ELISA; coat: sample 2, 25 uL saliva/100 uL in urine, diluted 1:40; replicate R1
[40] = target: Human statherin protein (human) (UniProt P02808); test: indirect ELISA; coat: A-Saliva (pure saliva of individual A) diluted 1:40; mean of triplicate
[41] = target: Human statherin protein (human) (UniProt P02808); test: indirect ELISA; coat: sample 1, 50 uL saliva/100 uL in urine, diluted 1:40; mean minus saliva-free urine blank
[42] = target: Human statherin protein (human) (UniProt P02808); test: indirect ELISA; coat: A-SB-U (buccal swab stirred in 30 mL urine, individual A) diluted 1:40; replicate R3
[43] = target: Human statherin protein (human) (UniProt P02808); test: indirect ELISA; coat: sample 1, 50 uL saliva/100 uL in urine, diluted 1:40; mean of triplicate
[44] = target: Human statherin protein (human) (UniProt P02808); test: indirect ELISA; coat: A-SP-U (about 500 uL spit in 30 mL urine, individual A) diluted 1:40; replicate R2
[45] = target: Human statherin protein (human) (UniProt P02808); test: indirect ELISA; coat: sample 4, 6.25 uL saliva/100 uL in urine, diluted 1:40; replicate R3
[46] = target: Human statherin protein (human) (UniProt P02808); test: indirect ELISA; coat: A-SB-U (buccal swab stirred in 30 mL urine, individual A) diluted 1:40; replicate R2
[47] = target: Human statherin protein (human) (UniProt P02808); test: indirect ELISA; coat: A-SP-U (about 500 uL spit in 30 mL urine, individual A) diluted 1:40; replicate R1
[48] = target: Human statherin protein (human) (UniProt P02808); test: indirect ELISA; coat: sample 4, 6.25 uL saliva/100 uL in urine, diluted 1:40; mean minus saliva-free urine blank
[49] = target: Human statherin protein (human) (UniProt P02808); test: indirect ELISA; coat: sample 3, 12.5 uL saliva/100 uL in urine, diluted 1:40; mean minus saliva-free urine blank
[50] = target: Human statherin protein (human) (UniProt P02808); test: indirect ELISA; coat: sample 2, 25 uL saliva/100 uL in urine, diluted 1:40; replicate R2
[51] = target: Human statherin protein (human) (UniProt P02808); test: indirect ELISA; coat: sample 7, 0.78125 uL saliva/100 uL in urine, diluted 1:40; mean minus saliva-free urine blank
[52] = target: Human statherin protein (human) (UniProt P02808); test: indirect ELISA; coat: B-SB-U (buccal swab stirred in 30 mL urine, individual B) diluted 1:40; replicate R3
[53] = target: Human statherin protein (human) (UniProt P02808); test: indirect ELISA; coat: B-SB-U (buccal swab stirred in 30 mL urine, individual B) diluted 1:40; replicate R2
[54] = target: Human statherin protein (human) (UniProt P02808); test: indirect ELISA; coat: sample 6, 1.5625 uL saliva/100 uL in urine, diluted 1:40; replicate R3
[55] = target: Human statherin protein (human) (UniProt P02808); test: indirect ELISA; coat: A-SP-U (about 500 uL spit in 30 mL urine, individual A) diluted 1:40; replicate R3
[56] = target: Human statherin protein (human) (UniProt P02808); test: indirect ELISA; coat: sample 7, 0.78125 uL saliva/100 uL in urine, diluted 1:40; replicate R1
[57] = target: Human statherin protein (human) (UniProt P02808); test: indirect ELISA; coat: B-SP-U (about 500 uL spit in 30 mL urine, individual B) diluted 1:40; replicate R1
[58] = target: Human statherin protein (human) (UniProt P02808); test: indirect ELISA; coat: sample 5, 3.125 uL saliva/100 uL in urine, diluted 1:40; replicate R2
[59] = target: Human statherin protein (human) (UniProt P02808); test: indirect ELISA; coat: sample 5, 3.125 uL saliva/100 uL in urine, diluted 1:40; mean minus saliva-free urine blank

UniProt P02808, sequence (P02808 20-62 limits assumed): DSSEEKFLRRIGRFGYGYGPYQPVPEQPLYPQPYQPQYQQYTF

Substance: Statherin Antibody (N-16), Santa Cruz Biotechnology, Inc. (Catalog No. sc-28112)
- OD405 [1]: 0.114 OD405
- OD405 Mean - Blank mean [2]: 0.095 OD405
- OD405 [3]: 0.325 OD405
- OD405 Mean [4]: 0.083 OD405
- OD405 [5]: 0.083 OD405
- OD405 [6]: 0.331 OD405
- OD405 Mean [7]: 0.336 OD405
- OD405 [8]: 0.16 OD405
- OD405 Mean [9]: 0.303 OD405
- OD405 Mean [10]: 0.224 OD405
- OD405 [11]: 0.318 OD405
- OD405 [12]: 0.12 OD405
- OD405 Mean [13]: 0.125 OD405
- OD405 [14]: 0.161 OD405
- OD405 [15]: 0.06 OD405
- OD405 [16]: 0.091 OD405
- OD405 [17]: 0.14 OD405
- OD405 [18]: 0.168 OD405
- OD405 [19]: 1.24 OD405
- OD405 Mean - Blank mean [20]: 0.053 OD405
- OD405 [21]: 0.165 OD405
- OD405 Mean [22]: 0.062 OD405
- OD405 [23]: 0.394 OD405
- OD405 Mean [24]: 0.137 OD405
- OD405 [25]: 0.289 OD405
- OD405 [26]: 0.171 OD405
- OD405 [27]: 0.144 OD405
- OD405 [28]: 1.22 OD405
- OD405 [29]: 0.132 OD405
- OD405 [30]: 0.114 OD405
- OD405 [31]: 0.057 OD405
- OD405 [32]: 0.129 OD405
- OD405 Mean [33]: 0.306 OD405
- OD405 Mean [34]: 0.144 OD405
- OD405 [35]: 1.21 OD405
- OD405 Mean [36]: 0.121 OD405
- OD405 [37]: 0.151 OD405
- OD405 Mean [38]: 0.168 OD405
- OD405 [39]: 0.147 OD405
- OD405 Mean [40]: 1.22 OD405
- OD405 Mean - Blank mean [41]: 0.125 OD405
- OD405 [42]: 0.291 OD405
- OD405 Mean [43]: 0.155 OD405
- OD405 [44]: 0.229 OD405
- OD405 [45]: 0.131 OD405
- OD405 [46]: 0.287 OD405
- OD405 [47]: 0.207 OD405
- OD405 Mean - Blank mean [48]: 0.114 OD405
- OD405 Mean - Blank mean [49]: 0.107 OD405
- OD405 [50]: 0.114 OD405
- OD405 Mean - Blank mean [51]: 0.032 OD405
- OD405 [52]: 0.289 OD405
- OD405 [53]: 0.311 OD405
- OD405 [54]: 0.075 OD405
- OD405 [55]: 0.236 OD405
- OD405 [56]: 0.069 OD405
- OD405 [57]: 0.171 OD405
- OD405 [58]: 0.117 OD405
- OD405 Mean - Blank mean [59]: 0.091 OD405
